Where two headings read alike, the source gives them in different places.

As a reminder, the EC50 is the concentration giving half of the maximal effect. In general, Kd refers to the free concentration of one partner at which half of the binding sites on the other are occupied at equilibrium, for simple one-to-one binding. Read a low Kd as tighter binding.

Experiment [1] has as its target T1, HA of A/Singapore/1/1957 (H2) (influenza A virus (H2), UniProt Q67333 16-525). The experiment can be described thus: ELISA.
Experiment [2] deals with T2, HA of A/turkey/Wisconsin/1/1966 (H9N2) (influenza A virus (H9N2), UniProt P03457 19-526). The experiment is described as follows: ELISA, recombinant HA. For orientation: In an ELISA, binding on a coated surface is turned into a signal by an enzyme label.
Experiment [3] addresses T1, HA of A/Singapore/1/1957 (H2). The experiment can be described thus: ELISA, recombinant HA.
Experiment [4] has as its target T2, HA of A/turkey/Wisconsin/1/1966 (H9N2). The experiment can be described thus: ELISA, recombinant HA. The source holds these as a separate data set.
Experiment [5] has as its target T1, HA of A/Singapore/1/1957 (H2). The experiment is described as follows: ELISA. This is another data set of the same source.
The target is the same in experiment [6]. The experiment can be described thus: ELISA, recombinant HA. The source holds these as a separate data set.
Experiment [7] has the same target. The experiment can be described thus: ELISA. This is another data set of the same source.
For experiment [8] the target is unchanged. The experiment can be described thus: ELISA. The source holds these as a separate data set.
The target of experiment [9] is T3, HA of A/South Carolina/1/1918 (H1N1) (influenza A virus (H1N1), UniProt Q9WFX3 18-529). The experiment is described as follows: BLI, Fab on immobilized biotinylated HA. On the technique in general: BLI is a label-free optical method that tracks binding on a fibre tip over time.
Experiment [10] has as its target T3, HA of A/South Carolina/1/1918 (H1N1). The experiment can be described thus: BLI, 1:1 global fit; Table S2 of the text prints 46 for this strain.
Experiment [11] has as its target HA of A/Victoria/3/1975 (H3N2) (influenza A virus (H3N2), UniProt P03435 17-531). The experiment can be described thus: BLI, Fab on immobilized biotinylated HA.
The target in experiment [12] is T3, HA of A/South Carolina/1/1918 (H1N1). The experiment can be described thus: BLI, Fab on immobilized biotinylated HA. This is another data set of the same source.
Experiment [13] has as its target T4, HA of A/Hong Kong/1/1968 (H3N2) (influenza A virus (H3N2), UniProt Q91MA7 17-530). The experiment can be described thus: Octet (BLI) with HA.
Experiment [14] concerns the target T2, HA of A/turkey/Wisconsin/1/1966 (H9N2). The experiment can be described thus: Octet (BLI) with HA.
Experiment [15] concerns the target HA of A/Japan/305/1957 (H2N2) (influenza A virus (H2N2), UniProt P03451 16-525). The experiment can be described thus: Octet (BLI) with HA.
Experiment [16] deals with T3, HA of A/South Carolina/1/1918 (H1N1). The experiment is described as follows: Octet (BLI) with HA.
Experiment [17] has as its target T4, HA of A/Hong Kong/1/1968 (H3N2). The experiment is described as follows: ELISA (highest dilution tested 1/50,000).
Experiment [18] has as its target T3, HA of A/South Carolina/1/1918 (H1N1). The experiment is described as follows: ELISA (highest dilution tested 1/50,000).
The target of experiment [19] is T4, HA of A/Hong Kong/1/1968 (H3N2). The experiment is described as follows: ELISA, recombinant HA.
Experiment [20] shares this target. The experiment is described as follows: ELISA, recombinant HA. This is another data set of the same source.
For experiment [21] the target is unchanged. The experiment can be described thus: BLI, Fab on immobilized biotinylated HA.
For experiment [22] the target is unchanged. The experiment is described as follows: BLI, Fab on immobilized biotinylated HA. This is another data set of the same source.
The target of experiment [23] is HA of A/Perth/16/2009 (H3N2) (influenza A virus (H3N2), UniProt O11283 17-530). The experiment is described as follows: BLI, Fab on immobilized biotinylated HA.

T3 sequence (Q9WFX3 18-529): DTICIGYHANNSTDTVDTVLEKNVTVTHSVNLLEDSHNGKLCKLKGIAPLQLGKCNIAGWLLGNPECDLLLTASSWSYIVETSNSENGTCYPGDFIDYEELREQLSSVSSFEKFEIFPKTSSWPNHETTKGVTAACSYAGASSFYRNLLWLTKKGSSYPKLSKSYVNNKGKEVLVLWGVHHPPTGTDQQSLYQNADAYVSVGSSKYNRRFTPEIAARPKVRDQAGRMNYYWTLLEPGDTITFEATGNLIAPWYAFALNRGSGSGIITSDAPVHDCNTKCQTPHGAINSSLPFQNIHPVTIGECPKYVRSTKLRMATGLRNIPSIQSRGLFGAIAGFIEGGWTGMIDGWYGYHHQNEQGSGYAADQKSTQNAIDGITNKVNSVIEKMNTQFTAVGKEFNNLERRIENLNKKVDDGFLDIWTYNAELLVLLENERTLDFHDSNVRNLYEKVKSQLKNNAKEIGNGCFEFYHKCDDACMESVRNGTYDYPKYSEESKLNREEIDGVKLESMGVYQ
T2 sequence (P03457 19-526 limits assumed): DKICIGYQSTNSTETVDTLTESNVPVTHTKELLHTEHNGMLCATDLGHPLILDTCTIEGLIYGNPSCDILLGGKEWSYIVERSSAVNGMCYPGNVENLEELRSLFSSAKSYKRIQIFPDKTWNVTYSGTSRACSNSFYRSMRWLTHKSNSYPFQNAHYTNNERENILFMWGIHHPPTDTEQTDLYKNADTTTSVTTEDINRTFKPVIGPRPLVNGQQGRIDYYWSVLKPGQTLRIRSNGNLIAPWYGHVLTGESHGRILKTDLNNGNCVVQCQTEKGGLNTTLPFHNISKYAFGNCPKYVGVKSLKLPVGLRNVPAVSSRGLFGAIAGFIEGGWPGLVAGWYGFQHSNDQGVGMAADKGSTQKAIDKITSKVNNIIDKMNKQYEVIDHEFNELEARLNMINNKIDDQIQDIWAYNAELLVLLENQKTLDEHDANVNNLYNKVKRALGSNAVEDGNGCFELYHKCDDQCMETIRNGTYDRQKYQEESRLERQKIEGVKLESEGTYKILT
HA of A/Victoria/3/1975 (H3N2), sequence (P03435 17-531 limits assumed): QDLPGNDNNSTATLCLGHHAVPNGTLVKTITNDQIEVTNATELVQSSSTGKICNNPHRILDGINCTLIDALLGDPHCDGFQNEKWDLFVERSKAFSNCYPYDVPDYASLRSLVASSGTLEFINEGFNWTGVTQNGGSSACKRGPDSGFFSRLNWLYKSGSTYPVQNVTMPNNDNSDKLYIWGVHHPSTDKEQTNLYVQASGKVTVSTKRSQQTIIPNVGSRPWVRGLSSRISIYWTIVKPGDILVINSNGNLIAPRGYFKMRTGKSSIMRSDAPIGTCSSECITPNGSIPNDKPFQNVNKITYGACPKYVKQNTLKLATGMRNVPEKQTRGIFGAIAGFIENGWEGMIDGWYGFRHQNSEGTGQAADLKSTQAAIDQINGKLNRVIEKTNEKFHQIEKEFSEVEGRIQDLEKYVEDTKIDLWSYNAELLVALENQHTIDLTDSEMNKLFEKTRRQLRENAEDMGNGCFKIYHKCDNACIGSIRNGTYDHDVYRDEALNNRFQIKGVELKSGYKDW

B1: FluA-20 (hybridoma-produced IgG) (antibody, V domains shown)
VH: QVQLQESGPGLVKPSETLSLTCSVSGVSVTSDIYYWTWIRQPPGKGLEWIGYIFYNGDTNYNPSLKSRVTMSIDTSKNEFSLRLTSVTAADTAVYFCARGTEDLGYCSSGSCPNHWGQGTLVTVSS
VL: DIQMTQSPSSLSASIGDRVTITCRPSQNIRSFLNWFQHKPGKAPKLLIYAASNLQSGVPSRFSGSGSGTEFTLTIRSLQPEDFATYYCQQSYNTPPTFGQGTKVEIK
Take B1: the EC50 was found to be 0.007 µg/mL in experiment [1]; 0.063 µg/mL in experiment [2]; 0.009 µg/mL in experiment [3]; 0.022 µg/mL in [4]; 0.18 µg/mL in [5].

B2: rFluA-20 (recombinant FluA-20 IgG) (antibody, V domains shown)
VH: QVQLQESGPGLVKPSETLSLTCSVSGVSVTSDIYYWTWIRQPPGKGLEWIGYIFYNGDTNYNPSLKSRVTMSIDTSKNEFSLRLTSVTAADTAVYFCARGTEDLGYCSSGSCPNHWGQGTLVTVSS
VL: DIQMTQSPSSLSASIGDRVTITCRPSQNIRSFLNWFQHKPGKAPKLLIYAASNLQSGVPSRFSGSGSGTEFTLTIRSLQPEDFATYYCQQSYNTPPTFGQGTKVEIK
For B2, the EC50 in [6] was determined as 0.178 µg/mL; in experiment [2], 0.193 µg/mL; in experiment [4], 0.016 µg/mL; in [7], 0.011 µg/mL; in [8], 0.011 µg/mL.

B3: FluA-20 Fab (Fab, V domains shown)
VH: QVQLQESGPGLVKPSETLSLTCSVSGVSVTSDIYYWTWIRQPPGKGLEWIGYIFYNGDTNYNPSLKSRVTMSIDTSKNEFSLRLTSVTAADTAVYFCARGTEDLGYCSSGSCPNHWGQGTLVTVSS
VL: DIQMTQSPSSLSASIGDRVTITCRPSQNIRSFLNWFQHKPGKAPKLLIYAASNLQSGVPSRFSGSGSGTEFTLTIRSLQPEDFATYYCQQSYNTPPTFGQGTKVEIK
As to B3, the Kd in experiment [9] was 46 nM; in experiment [10], roughly 48 nM; in experiment [11] it was 3460 nM; in [12], 46 nM.

B4: H5.31 (antibody, V domains shown)
VH: EVQLVQSGGGLVQPGGSLRLSCEASRFTSSSYWITWVRQAPGKGLEWVANIKQDGSEKYFVDSVKGRFTISRDNASNSLYLQMSSLRAEDTAVYYCARGFLERLLLGRQGAYYYGMDVWGQGTTVTVSS
VL: DIQMTQSPSSLSASVGDRVTMTCRASQSISSSLNWYQQKPGKAPKLLIYAASNLQSGVPSRFSGSGSGTDFTLTISSLQPEDFATYYCQQSYTMPPELTFGGGTKVQIK
On to B4, for which the Kd was determined as 5.4 nM in [13], 17 nM in experiment [14], 0.13 nM in [15] and 0.17 nM in experiment [16]. The EC50 in experiment [17] came to 0.024 µg/mL; in [18], 0.031 µg/mL.

B5: H5.28 (antibody, V domains shown)
VH: EVQLVESGGGLVQPGGSLRLSCAASGFTFSTYWMTWVRQAPGKGLEWVANINQDGGEKYFVDSVKGRFTISRDNAKNSLFLQMNTLRAEDTAVYYCARGFLERLLLGRQGAYYYGMDVWGQGTTVTVSS
VL: DIQMTQSPSSLSASVGDRVSMTCRASQIISSSLNWYQQKPGKAPKLLIYAASNLQSGVPSRFSGSGSGTDFTLTISSLQPEDFATYYCQQSYSTPPELTFGGGTKVEIK
On to B5, for which the Kd was found to be 75 nM in [13], 65 nM in experiment [14], 0.19 nM in [15] and 0.11 nM in experiment [16]. Further, the 50% effective concentration (EC50) worked out at 16 µg/mL in [17] and 0.081 µg/mL in experiment [18].

B6: UCA (antibody, V domains shown)
VH: QVQLQESGPGLVKPSETLSLTCTVSGGSVSSGSYYWSWIRQPPGKGLEWIGYIYYSGSTNYNPSLKSRVTISVDTSKNQFSLKLSSVTAADTAVYYCARGTEDLGYCSGGSCPNHWGQGTLVTV
VL: not shown
On to B6, for which the EC50 in experiment [6] worked out at 0.07 µg/mL; in [19] it was 0.054 µg/mL; in experiment [2], 0.359 µg/mL; in experiment [3], 0.028 µg/mL; in [20], 0.021 µg/mL.

B7: FluA-20 UCA Fab (unmutated common ancestor of FluA-20) (Fab, V domains shown)
VH: QVQLQESGPGLVKPSETLSLTCTVSGGSVSSGSYYWSWIRQPPGKGLEWIGYIYYSGSTNYNPSLKSRVTISVDTSKNQFSLKLSSVTAADTAVYYCARGTEDLGYCSGGSCPNHWGQGTLVTV
VL: not shown
B7: the Kd in [21] was 486 nM; in experiment [9], 937 nM; in experiment [22], 486 nM; in [12], 937 nM. The binding result in [23] and in experiment [11] was “no binding (tested: 2 µM)” each time.

Values taken from US20210252150A1 (VANDERBILT UNIVERSITY, published 2021).
